Where “and” joins values, the source holds several entries; their conditions need not be identical. Equal entries are not always repeated.

Consider ten variants from FireProtDB (doi:10.1093/protein/12.10.841).

To fix the notation:
B1: Lysozyme C, P61626 (parent)
chain: MKALIVLGLVLLSVTVQGKVFERCELARTLKRLGMDGYRGISLANWMCLAKWESGYNTRATNYNAGDRSTDYGIFQINSRYWCNDGKTPGAVNACHLSCSALLQDNIADAVACAKRVVRDPQGIRAWVAWRNRCQNRDVRQYVQGCGV

In the first data set the parent is B1. The following applies: Homo sapiens; pH 2.7; 64.9 °C; Thermal; DSC; glycine 0.05 M; reversible: yes; structure 1LZ1; whole UniProt chain shown.
As for I77V, the “ddG of mutation (higher = less stable)” value was 1.1 kcal/mol.

With I77A, the “ddG of mutation (higher = less stable)” value was determined as 1.72 kcal/mol.

Regarding I77S, the “ddG of mutation (higher = less stable)” value worked out at 3.59 kcal/mol.

In the case of I74T, the “ddG of mutation (higher = less stable)” value came out at 3.63 kcal/mol.

Consider I74L, for which the “ddG of mutation (higher = less stable)” value worked out at 0.1 kcal/mol.

On to I74M, for which the “ddG of mutation (higher = less stable)” value amounted to 1.77 kcal/mol.

I74V: the “ddG of mutation (higher = less stable)” value was found to be 1.2 kcal/mol.

With I74F, the “ddG of mutation (higher = less stable)” value was 4.09 kcal/mol.

The same data set, now with this note: Homo sapiens; pH 2.7; Thermal; DSC; glycine 0.05 M; reversible: yes; structure 1LZ1; whole UniProt chain shown.
For orientation: Tm means the temperature at the midpoint of the melting transition. With I77V, the midpoint of thermal melting (Tm) was 61.5 °C and 64.9 °C; the “change of melting temperature, mutant - wild type (higher = more stable)” value (“change of melting temperature, mutant” for short) is -3.4 °C; the “heat capacity change of unfolding” value is 1.2 kcal/mol/K; the “unfolding enthalpy (calorimetric)” value stood at 110 kcal/mol. Further, the “unfolding enthalpy (van 't Hoff)” value was determined as 117 kcal/mol.

As for I77A, the midpoint of thermal melting (Tm) turned out to be 59.7 °C; the “change of melting temperature, mutant” value is -5.2 °C; the “heat capacity change of unfolding” value was 1.46 kcal/mol/K; the “unfolding enthalpy (calorimetric)” value was 115 kcal/mol. The “unfolding enthalpy (van 't Hoff)” value amounted to 121 kcal/mol.

For I77S, the “change of melting temperature, mutant” value was -11.8 °C; the “heat capacity change of unfolding” value was 1.2 kcal/mol/K and 1.34 kcal/mol/K; the “unfolding enthalpy (calorimetric)” value was 90.8 kcal/mol and 107 kcal/mol; the “unfolding enthalpy (van 't Hoff)” value is 96.8 kcal/mol and 114 kcal/mol.

With I74T, the “change of melting temperature, mutant” value is -12.5 °C; the “heat capacity change of unfolding” value is 1.08 kcal/mol/K; the “unfolding enthalpy (calorimetric)” value was determined as 102 kcal/mol; the “unfolding enthalpy (van 't Hoff)” value turned out to be 108 kcal/mol.

For I74A, the Tm was 64.9 °C.

As to I74L, the midpoint of thermal melting (Tm) is 64.6 °C and 64.9 °C; the “change of melting temperature, mutant” value was -0.3 °C; the “heat capacity change of unfolding” value stood at 1.41 kcal/mol/K; the “unfolding enthalpy (calorimetric)” value is 107 kcal/mol. The “unfolding enthalpy (van 't Hoff)” value amounted to 119 kcal/mol.

As for I74M, the “change of melting temperature, mutant” value is -5.8 °C; the “heat capacity change of unfolding” value was 1.63 kcal/mol/K and 1.53 kcal/mol/K; the “unfolding enthalpy (calorimetric)” value was 97.3 kcal/mol and 106 kcal/mol; the “unfolding enthalpy (van 't Hoff)” value was 107 kcal/mol and 115 kcal/mol.

For I74G, the midpoint of thermal melting (Tm) is 62.2 °C and the “change of melting temperature, mutant” value is -2.7 °C.

Turning to I74V, the midpoint of thermal melting (Tm) is 61.3 °C and 64.9 °C; the “change of melting temperature, mutant” value is -3.6 °C; the “heat capacity change of unfolding” value was found to be 1.34 kcal/mol/K; the “unfolding enthalpy (calorimetric)” value stood at 114 kcal/mol. Moreover, the “unfolding enthalpy (van 't Hoff)” value was found to be 117 kcal/mol.

With I74F, the “change of melting temperature, mutant” value is -15 °C; the “heat capacity change of unfolding” value came out at 1.82 kcal/mol/K; the “unfolding enthalpy (calorimetric)” value amounted to 102 kcal/mol; the “unfolding enthalpy (van 't Hoff)” value is 106 kcal/mol.

Still in this data set, the particulars now being: Homo sapiens; pH 2.51; Thermal; DSC; glycine 0.05 M; reversible: yes; structure 1LZ1; whole UniProt chain shown.
Take I77S: the melting temperature (Tm) turned out to be 50.2 °C, the “heat capacity change of unfolding” value stood at 1.27 kcal/mol/K, the “unfolding enthalpy (calorimetric)” value was found to be 87 kcal/mol and the “unfolding enthalpy (van 't Hoff)” value was found to be 92.7 kcal/mol.

Staying with this data set, now noted: Homo sapiens; pH 2.84; Thermal; DSC; glycine 0.05 M; reversible: yes; structure 1LZ1; whole UniProt chain shown.
In the case of I77S, the midpoint of thermal melting (Tm) stood at 55.3 °C, the “heat capacity change of unfolding” value was found to be 1.55 kcal/mol/K, the “unfolding enthalpy (calorimetric)” value was 94.7 kcal/mol and the “unfolding enthalpy (van 't Hoff)” value was determined as 99.9 kcal/mol.

Still in this data set, the particulars now being: Homo sapiens; pH 3.04; Thermal; DSC; glycine 0.05 M; reversible: yes; structure 1LZ1; whole UniProt chain shown.
I77S: the midpoint of thermal melting (Tm) is 58.2 °C, the “heat capacity change of unfolding” value was found to be 1.48 kcal/mol/K, the “unfolding enthalpy (calorimetric)” value came out at 98.2 kcal/mol and the “unfolding enthalpy (van 't Hoff)” value is 104 kcal/mol.

Still in this data set, the particulars now being: Homo sapiens; pH 3.17; Thermal; DSC; glycine 0.05 M; reversible: yes; structure 1LZ1; whole UniProt chain shown.
As for I77S, the midpoint of thermal melting (Tm) amounted to 60 °C, the “heat capacity change of unfolding” value stood at 1.24 kcal/mol/K, the “unfolding enthalpy (calorimetric)” value was 99.9 kcal/mol and the “unfolding enthalpy (van 't Hoff)” value worked out at 106 kcal/mol.

Still in this data set, the particulars now being: Homo sapiens; pH 2.48; Thermal; DSC; glycine 0.05 M; reversible: yes; structure 1LZ1; whole UniProt chain shown.
On to I74L, for which the Tm came out at 61.2 °C, the “heat capacity change of unfolding” value was found to be 1.41 kcal/mol/K, the “unfolding enthalpy (calorimetric)” value was 103 kcal/mol and the “unfolding enthalpy (van 't Hoff)” value came out at 113 kcal/mol.

The same data set, now with this note: Homo sapiens; pH 2.65; Thermal; DSC; glycine 0.05 M; reversible: yes; structure 1LZ1; whole UniProt chain shown.
On to I74L, for which the midpoint of thermal melting (Tm) was found to be 64 °C, the “heat capacity change of unfolding” value is 1.55 kcal/mol/K, the “unfolding enthalpy (calorimetric)” value amounted to 105 kcal/mol and the “unfolding enthalpy (van 't Hoff)” value was determined as 119 kcal/mol.

The data set is the same for the next values; noted with them: Homo sapiens; pH 2.96; Thermal; DSC; glycine 0.05 M; reversible: yes; structure 1LZ1; whole UniProt chain shown.
As for I74L, the Tm amounted to 68.7 °C, the “heat capacity change of unfolding” value came out at 1.27 kcal/mol/K, the “unfolding enthalpy (calorimetric)” value amounted to 112 kcal/mol and the “unfolding enthalpy (van 't Hoff)” value came to 125 kcal/mol.

The same data set, now with this note: Homo sapiens; pH 2.54; Thermal; DSC; glycine 0.05 M; reversible: yes; structure 1LZ1; whole UniProt chain shown.
Take I74M: the Tm worked out at 56.3 °C, the “heat capacity change of unfolding” value came out at 1.39 kcal/mol/K, the “unfolding enthalpy (calorimetric)” value was 92.5 kcal/mol and the “unfolding enthalpy (van 't Hoff)” value was determined as 103 kcal/mol.

Still in this data set, the particulars now being: Homo sapiens; pH 2.83; Thermal; DSC; glycine 0.05 M; reversible: yes; structure 1LZ1; whole UniProt chain shown.
Consider I74M, for which the Tm was found to be 61.3 °C, the “heat capacity change of unfolding” value worked out at 1.72 kcal/mol/K, the “unfolding enthalpy (calorimetric)” value worked out at 101 kcal/mol and the “unfolding enthalpy (van 't Hoff)” value was 110 kcal/mol.

Staying with this data set, now noted: Homo sapiens; pH 3.02; Thermal; DSC; glycine 0.05 M; reversible: yes; structure 1LZ1; whole UniProt chain shown.
For the variant I74M, the Tm was 64.2 °C, the “heat capacity change of unfolding” value is 1.43 kcal/mol/K, the “unfolding enthalpy (calorimetric)” value stood at 105 kcal/mol and the “unfolding enthalpy (van 't Hoff)” value amounted to 113 kcal/mol.

Staying with this data set, now noted: Homo sapiens; pH 3.11; Thermal; DSC; glycine 0.05 M; reversible: yes; structure 1LZ1; whole UniProt chain shown.
Take I74M: the midpoint of thermal melting (Tm) came to 65.9 °C, the “heat capacity change of unfolding” value stood at 1.53 kcal/mol/K, the “unfolding enthalpy (calorimetric)” value stood at 107 kcal/mol and the “unfolding enthalpy (van 't Hoff)” value was 116 kcal/mol.

Staying with this data set, now noted: Homo sapiens; pH 2.75; Thermal; DSC; glycine 0.05 M; reversible: yes; structure 1LZ1; whole UniProt chain shown.
Take I74F: the Tm is 50.8 °C, the “heat capacity change of unfolding” value was determined as 1.89 kcal/mol/K, the “unfolding enthalpy (calorimetric)” value came out at 76 kcal/mol and the “unfolding enthalpy (van 't Hoff)” value amounted to 79.3 kcal/mol.

Still in this data set, the particulars now being: Homo sapiens; pH 3.06; Thermal; DSC; glycine 0.05 M; reversible: yes; structure 1LZ1; whole UniProt chain shown.
As for I74F, the melting temperature (Tm) worked out at 56.3 °C, the “heat capacity change of unfolding” value turned out to be 1.77 kcal/mol/K, the “unfolding enthalpy (calorimetric)” value is 86 kcal/mol and the “unfolding enthalpy (van 't Hoff)” value stood at 89.6 kcal/mol.
